In paper PMC4415690 one finds stoichiometry N data, which are given here for one substance.

In this assay the target is TesS thioesterase (SP1408) of Streptococcus pneumoniae, C-terminal FLAG tag (Streptococcus pneumoniae). Nature of the assay: SEC.

In general, stoichiometry N refers to a count of units in the complex or per binding partner. Turning to “TesS thioesterase (SP1408) of Streptococcus pneumoniae, C-terminal FLAG tag (enzyme)”, the stoichiometry N was 2.
